B1: SbGT56 (Scutellaria baicalensis) (protein)
chain: MGQLHIVLVPMIAHGHMIPMLDMAKLFSSRGVKTTIIATPAFAEPIRKARESGHDIGLTTTKFPPKGSSLPDNIRSLDQVTGDLLPHFFRALELLQEPVEEIMEDLKPNCLVSDMFLPWTTDSAAKFGIPRLVFHGTSLFARCFSEQMSIQKPYKNVSSDSEPFVLRGLPHEVSFVRTQIPDYELQEGGDDAFSKMAKQMRDADKKSYGDVINSFEELESEYADYNKNVFGKKAWHIGPLKLFNNRAEQKSSQRGKESAIDDHECLAWLNSKKPNSVVYMCFGSMATFTPAQLHETAVGLESSGQDFIWVVRNGGKNEDWLPQGFEERIKGKGLMIRGWAPQVMILDHPSTGAFVTHCGWNSTLEGICAGLPMVTWPVFAEQFYNEKLVTEVLKTGVSVGNKKWQRVGEGVGSEAVKEAVERVMVGDGAAEMRSRAVYYKEMARKAVEEGGSSYNNLNALIQELSAYVPPMKQGLN
notes: full-length cDNA in pTWIN1B; E. coli BL21 (DE3)
B2: SbGT34 (Scutellaria baicalensis) (protein)
chain: MGQLHIVLVPMIAHGHMIPMLDMAKLFSSRGVKTTIIATPAFAEPIRKARESGHDIGLTTTKFPPKGSSLPDNIWSLDQVTDDLLPHFFRALELLQEPVEEIMEDLKPNCLVSDMFLPWTTDSAAKFGIPRLLFHGTSLFARCFAEQMSLQKPYKNVSSDSEPFVLRGLPHEVSFVRTQIPGYELQEGGDDAFSKMAKQMRDADKKSYGDVINNFEELESEYVDHYKNVFGKKAWHIGPLSLCNNRAEQKSPIDDHECLAWLNSKKPNSVVYMCFGSMATFTPAQLHETAVGLESSGQDFIWVVRNGGENEDWLPQGFEERIKGKGLMIRGWAPQVMILDHPSTGAFVTHCGWNSTLEGICAGLPMVTWPVFAEQFYNEKLVTEVLKTGVSVGNKKWQRVGEGVGSEAVKEAVERVMVGDGAAEMRSRAIYYKEMARKAVEEGGSSYNNLNALIEELSAYVPPMKQGLN
notes: as for B1
B3: SbGT30 (Scutellaria baicalensis) (protein)
chain: MGQLHIVLVPMIAHGHMIPMLDMAKLFSSRGVRTTIIATPAFAEPIRKARESGHDIGLTTTKFPPKGSSLPDNILSLDQVTHDLLPHFFRALELLQEPVEEIMEDLKPNCLVSDMFLPWTTDSAAKFGIPRLLFHGTSLFARCFAEQMSLQKPYKNVSSDSEPFVLRGLPHEVSFVRTQIPGYELQEGGDDAFSKMAKQMRDADKKSYGDVINSFEELESEYVDHYKNVFGKKAWHIGPLSLCNNRAEQKSPIDDHECLAWLNSKKPNSVVYMCFGSMATFSPAQLHETAVGLESSGQDFIWVVRNGGENEDWLPQGFEERIKGKGLMIRGWAPQVVILDHPSTGAFVTHCGWNSTLEGICAGLPMVTWPVFAEQFYNEKLVTEVLKTGVSVGNKKWQRVGEWVGSEAVKEAVEWVMVGDGAAEMRSRANYYKEMARKAVEDGGSSYNNLNALIQELSAYVPPMKQGLN
notes: as for B1

Substrate: O=c1cc(-c2ccc(O)cc2)oc2cc(O)c(O)c(O)c12
Assay: HPLC glucosyltransferase assay, Lineweaver-Burk plot
Format: biochemical, Scutellaria baicalensis
Settings: 2 mM UDP-glucose (saturating), 50 mM Tris-HCl pH 7.5, 30 °C

In order of falling Km:
1. B1  222 µM
2. B3  188 µM
3. B2  121 µM

Source: PMC4973555, “Engineering Saccharomyces cerevisiae with the deletion of endogenous glucosidases for the production of flavonoid glucosides” (Microbial Cell Factories, 2016)
